Source: article PMC11483992
Values joined by “and” are separate entries in the source; they are usually repeats but may differ in a detail not shown here. Identical values can stand only once.

Legend:
[1] = target: AS25 A57G monobody; assay: ITC; Abl SH2 in the syringe (200 µM; 300 µM for AS25 Y45A-A57G) titrated to the monobody in the cell (20 µM; 30 µM for AS25 Y45A-A57G); 25 °C; 50 mM Tris pH 7.0, 250 mM NaCl, 5% glycerol; two replicate experiments
[2] = target: AS25 monobody; assay: as above
[3] = target: AS25 Y45A-A57G monobody; assay: as above
[4] = target: AS25_(Y45A-A57G); assay: ITC; Abl SH2 in the syringe (200 µM, or 300 µM for AS25 Y45A-A57G) titrated to the monobody in the cell (20 µM, or 30 µM); 50 mM Tris pH 7.0, 250 mM NaCl, 5% glycerol; 25 °C
[5] = target: monobody AS25; assay: as above
[6] = target: AS25_(A57G); assay: as above
Sequence of AS25_(A57G) (main, as listed by the source A57G): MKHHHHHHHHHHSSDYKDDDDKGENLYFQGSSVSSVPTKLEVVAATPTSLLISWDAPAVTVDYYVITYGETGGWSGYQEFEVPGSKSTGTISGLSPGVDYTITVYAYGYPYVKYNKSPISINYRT

Sequence of AS25 Y45A-A57G monobody (main, as listed by the source Y45A A57G): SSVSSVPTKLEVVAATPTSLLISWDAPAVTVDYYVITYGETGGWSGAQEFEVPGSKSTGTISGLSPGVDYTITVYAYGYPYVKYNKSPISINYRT
Sequence of monobody AS25 (main, as listed by the source): as the sequence (main, as listed by the source A57G) above, with G89A counted along it
Sequence of AS25_(Y45A-A57G) (main, as listed by the source Y45A A57G): as the sequence (main, as listed by the source A57G) above, with Y77A counted along it

Kd [1]: 188 nM
stoichiometry N [1]: 0.864 and 0.817
Kd [2]: 210 nM
stoichiometry N [2]: 0.861 and 0.869
Kd [3]: 3170 nM
stoichiometry N [3]: 0.792 and 0.788
Kd [4]: 2690 nM
stoichiometry N [4]: 1
Kd [5]: 180 nM
stoichiometry N [5]: 1
Kd [6]: 156 nM
stoichiometry N [6]: 1
Substance: Abl1 SH2 domain (from UniProt P00519 112-232) (domain or fragment)
